Data published in patent US12258605B2, “Alkane oxidation by modified hydroxylases” (The California Institute of Technology, priority 2005, dated 2025).
Numbering of substitutions follows the chain as printed. Names and notes keep the numbering of the source.

B1: 35-E11: P450 BM-3 variant, SEQ ID NO:7: 53-5H substitutions plus E464G and I710T (protein)
chain: TIKEMPQPKTFGELKNLPLLNTDKPVQALMKIADELGEIFKFEAPGCVTRYLSSQRLIKEACDESRFDKNLSQALKFFRDFSGDGLFTSWTHEINWKKAHNILLPSFSQQAMKGYHAMMVDIAVQLVQKWERLNADEHIEVSEDMTRLTLDTIGLCGFNYRFNSFYRDQPHPFIISMVRALDEVMNKLQRANPDDPAYDENKRQCQEDIKVMNDLVDKIIADRKARGEQSDDLLTQMLNGKDPETGEPLDDGNISYQIITFLIAGHETTSGLLSFALYFLVKNPHVLQKVVEEAARVLVDPVPSYKQVKQLKYVGMVLNEALRLWPTFPAFSLYAKEDTVLGGEYPLEKGDEVMVLIPQLHRDKTIWGDDVEEFRPERFENPSAIPQHAFKPFGNGQRACIGQQFALHEATLVLGMMLKHFDFEDHTNYELDIKETLTLKPEGFVVKAKSKKIPLGGIPSPSTGQSAKKVRKKAENAHNTPLLVLYGSNMGTAEGTARDLADIAMSKGFAPQVATLDSHAGNLPREGAVLIVTASYNGHPPDNAKQFVDWLDQASADEVKGVRYSVFGCGDKNWATTYQKVPAFIDETLAAKGAENIADRGEADASDDFEGTYEEWREHMWSDVAAYFNLDIENSEDNKSTLSLQFVDSAADMPLAKMHGAFSTNVVASKELQQPGSARSTRHLEIELPKEASYQEGDHLGVIPRNYEGTVNRVTARFGLDASQQIRLEAEEEKLAHLPLAKTVSVEELLQYVELQDPVTRTQLRAMAAKTVCPPHKVELEALLEKQAYKEQVLAKRLTMLELLEKYPACEMKFSEFIALLPSIRPRYYSISSSPRVDEKQASITVSVVSGEAWSGYGEYKGIASNYLAELQEGDTITCFISTPQSEFTLPKDPETPLIMVGPGTGVAPFRGFVQARKQLKEQGQSLGEAHLYFGCRSPHEDYLYQEELENAQSEGIITLHTAFSRMPNQPKTYVQHVMEQDGKKLIELLDQGAHFYICGDGSQMAPAVEATLMKSYADVHQVSEADARLWLQQLEEKGRYAKDVWAG
modifications: mutant P450 35-E11 protein sequence
B2: 20-D3: P450 BM-3 variant, SEQ ID NO:11; 35-E11 plus H285R (protein)
chain: B1 chain with H285R
modifications: mutant P450 20-D3 protein sequence
notes: 35-E11 plus H285R
B3: Wild-type BM-3: wild-type cytochrome P450 BM-3 from Bacillus megaterium, SEQ ID NO:1 (protein, listed as Bacillus megaterium)
chain: TIKEMPQPKTFGELKNLPLLNTDKPVQALMKIADELGEIFKFEAPGRVTRYLSSQRLIKEACDESRFDKNLSQALKFVRDFAGDGLFTSWTHEKNWKKAHNILLPSFSQQAMKGYHAMMVDIAVQLVQKWERLNADEHIEVPEDMTRLTLDTIGLCGFNYRFNSFYRDQPHPFITSMVRALDEAMNKLQRANPDDPAYDENKRQFQEDIKVMNDLVDKIIADRKASGEQSDDLLTHMLNGKDPETGEPLDDENIRYQIITFLIAGHETTSGLLSFALYFLVKNPHVLQKAAEEAARVLVDPVPSYKQVKQLKYVGMVLNEALRLWPTAPAFSLYAKEDTVLGGEYPLEKGDELMVLIPQLHRDKTIWGDDVEEFRPERFENPSAIPQHAFKPFGNGQRACIGQQFALHEATLVLGMMLKHFDFEDHTNYELDIKETLTLKPEGFVVKAKSKKIPLGGIPSPSTEQSAKKVRKKAENAHNTPLLVLYGSNMGTAEGTARDLADIAMSKGFAPQVATLDSHAGNLPREGAVLIVTASYNGHPPDNAKQFVDWLDQASADEVKGVRYSVFGCGDKNWATTYQKVPAFIDETLAAKGAENIADRGEADASDDFEGTYEEWREHMWSDVAAYFNLDIENSEDNKSTLSLQFVDSAADMPLAKMHGAFSTNVVASKELQQPGSARSTRHLEIELPKEASYQEGDHLGVIPRNYEGIVNRVTARFGLDASQQIRLEAEEEKLAHLPLAKTVSVEELLQYVELQDPVTRTQLRAMAAKTVCPPHKVELEALLEKQAYKEQVLAKRLTMLELLEKYPACEMKFSEFIALLPSIRPRYYSISSSPRVDEKQASITVSVVSGEAWSGYGEYKGIASNYLAELQEGDTITCFISTPQSEFTLPKDPETPLIMVGPGTGVAPFRGFVQARKQLKEQGQSLGEAHLYFGCRSPHEDYLYQEELENAQSEGIITLHTAFSRMPNQPKTYVQHVMEQDGKKLIELLDQGAHFYICGDGSQMAPAVEATLMKSYADVHQVSEADARLWLQQLEEKGRYAKDVWAG

How the values were obtained:
[1] = Octane hydroxylation (rate, ttn, regio- and enantioselectivity); type: biochemical; conditions: for Octane ttn / Octane Rate: 1% ethanol; for Octane Rate: initial rate of octanol formation over 1 min; for Octane % 2-octanol: regioselectivity
Procedure: Cell lysates for high throughput screening were prepared as described previously (Peters et al., J. Am. Chem. Soc. 125:13442 (2003); incorporated by reference herein). High-throughput dimethyl ether (DME) screens were performed in 96 well plates as described previously. Improved mutants were selected based on an increased signal compared to 9-10A (for the saturation mutagenesis libraries) and 1-12G (for the recombination library). Reactions on octane and propane were analyzed by gas chromatography as described.
Rates of ethanol formation were measured over 30 min using gas chromatography (GC) coupled to an electron capture detector (ECD) and are reported as nmol ethanol/min/nmol enzyme. Errors are at most 10%. Total turnover number (ttn) was measured using GC after completion of the reaction and is reported as nmol product/nmol protein. Errors are at most 10%. Initial rates of propanol and octanol formation were measured over 1 min by GC and are reported as nmol product/min/nmol protein. Errors are at most 15%. The “ee” of 2-octanol (main product) was measured by GC; the favored enantiomer is listed in parenthesis. Wild-type P450 BM-3 primarily produces 3- and 4-octanol. The yields were not sufficient for the determination of ee for wt BM-3. Mutant 9-10A contains amino acid substitutions R47C, V78A K94I, P142S, T175I, A184V, F205C, S226R, H236Q, E252G, R255S, A290V, and L353V.
In Table 5 the product distribution is determined as ratio of a specific alcohol product to the total amount of all alcohol products (given in %). The product distribution for ketones was similar to alcohol product distribution. The numbers reported here are the (%) total of all ketones relative to total products (alcohols+ketones). The favored enantiomer is listed in parentheses.
For the data shown in Table 6 the initial NADPH consumption rates were measured over 15 seconds at 340 nm as nmol NADPH/min/nmol protein. Octane reactions contained 100 nM P450, 166 uM NADPH, and 4 mM octane in 1% ethanol and potassium phosphate buffer. […] Errors are at most 10%. Initial rates were measured by GC over 1 minute as nmol total products/min/nmol protein. Octane reactions contained 100 nM P450, 500 uM NADPH, and 4 mM octane in 1% ethanol and potassium phosphate buffer. Propane reactions contained 1 uM P450, 500 uM NADPH, and propane-saturated potassium phosphate buffer. Coupling was determined by ratio of product formation rate to NADPH consumption rate. Total turnover numbers were determined as nmol product/nmol enzyme. Octane reactions contained 10-25 nM P450, 500 uM NADPH, and 4 mM octane in 1% ethanol and potassium phosphate buffer. Propane reactions contained 10-25 nM protein, potassium phosphate buffer saturated with propane, and an NADPH regeneration system containing 100 uM NADP+, 2 U/mL isocitrate dehydrogenase, and 10 mM isocitrate.
Twenty-one single active site mutants with increased activity towards either of these substrates were isolated. Mutations that improved the activity were found at amino acid positions L75 (I, W), A78 (T, F, S), A82 (T, S, F, I, C, G, L), F87 (I, V, L), T88 (C), T260 (N, L, S) and A328 (L, F, M). The single active site mutants of 9-10A were characterized by their altered regioselectivity towards octane. Each of these mutations produces a characteristic octanol product distribution as a result of their presence altering the active site geometry above the heme cofactor. Transformations were carried out using cell lysates. The mutations were generated in variant 9-10A (with amino acid mutations R47C, V78A, K94I, P142S, T175I, A184V, F205C, S226R, H236Q, E252G, R255S, A290V, L353V). “Others” indicates over oxidation products (ketones and aldehydes) with a similar product distribution as the alcohols. “Rate” was measured as nmol octanol/nmol P450/minute. “TTN” was measured as nmol octanol/nmol P450 produced in 4 hour reaction.
Mutations are relative to variant 9-10A (described above). Wild-type has a valine at position 78. […]

[2] = Background NADPH oxidation rate in screen (cell lysate, no substrate); type: biochemical; conditions: relative to 35-E11
Outline: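 Absorbance change at 340 nm over 1 minute after adding NADPH to P450-containing cell lysate with no substrate, in 8 wells per mutant, compared with 8 equivalent 35-E11 reactions. Rates normalized to P450 concentration measured per well by CO binding.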

| Molecule | Octane ttn [1] [nmol product/nmol protein] | Octane % ee ([1]; ee of 2-octanol (main product), favored enantiomer (S)) [%] | Octane Rate [1] | Octane % 2-octanol [1] [%] | Relative background NADPH oxidation rate [2] | rate of octane hydroxylation [1] [min⁻¹] |
| --- | --- | --- | --- | --- | --- | --- |
| B1 | 8000 | 65 | 420 nmol product/min/nmol protein | 89 | 1 |  |
| B2 |  |  |  |  | 1.6 |  |
| B3 | 150 |  | 30 nmol product/min/nmol protein | 17 |  | 30 |
